The values that follow come from PMC9842712, “Cryo-EM structure of hnRNPDL-2 fibrils, a functional amyloid associated with limb-girdle muscular dystrophy D3” (Nature Communications, 2022).

One data set has as its target T1, hnRNPDL-2 (soluble) (human, UniProt O14979-2 1-301).
T1 sequence: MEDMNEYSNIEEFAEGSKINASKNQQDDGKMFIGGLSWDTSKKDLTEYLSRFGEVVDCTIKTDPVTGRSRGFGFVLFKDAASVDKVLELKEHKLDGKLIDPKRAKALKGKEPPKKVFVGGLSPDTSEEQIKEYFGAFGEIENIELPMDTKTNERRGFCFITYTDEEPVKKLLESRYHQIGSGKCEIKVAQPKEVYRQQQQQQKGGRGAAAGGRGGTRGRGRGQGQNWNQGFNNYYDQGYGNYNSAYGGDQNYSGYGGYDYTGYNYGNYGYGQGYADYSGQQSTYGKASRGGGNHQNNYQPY
The data set is described as follows: EMSA; apparent Kd, Hill fit; 50 nM probe; EMSA: 10 ul, 50 nM probe, 24 h at RT, 8% polyacrylamide gel, buffer not stated; fibril binding: 24 h at RT, spin 16,000 x g at 4 C, pellet wash 50 mM HEPES pH 7.5, 150 mM NaCl. The following applies: protein: recombinant; tags: N-terminal His-SUMO (expression construct); label: fluorescein, printed at 5' side (F-); FITC in peer review file; single strand, 7-mer.

Data set [1] concerns the molecule itself. Briefly: cryo-EM structure; helical reconstruction of amyloid fibrils formed at pH 7.5, 300 mM NaCl; single protofilament, cross-beta stacking of subunits; 2.5 Å.

B1: F-RNA (F-GACUAGC) (ssRNA)
RNA: GACUAGC
Turning to B1, the Kd in the data set with hnRNPDL-2 (soluble) was determined as 22.8 ± 3.95 µM.

B2: hnRNPDL-2 (human heterogeneous ribonucleoprotein D-like, isoform 2), wild type (natural protein, UniProt O14979-2 1-301, looked up)
chain: T1 sequence
notes: Heterogeneous nuclear ribonucleoprotein D-like, human, isoform hnRNPDL-2 of 301 residues (RRM1, RRM2, C-terminal Y/G-rich LCD ~201-285, PY-NLS 281-301; exon 6 = residues 224-280). numbers count on: hnRNPDL-2 (the 301-residue isoform); Cloned in pETite with a His-SUMO N-terminal tag; In the fibril the subunits stack in a single protofilament; also called WT hnRNPDL-2; full-length hnRNPDL-2; …
On to B2, for which, in data set [1], the binding result is listed as “binds”.
